Measured values published in publication PMC11811267 (Journal of Separation Science, 2025).

Tests used:
[1] = Short-term (bench-top) stability at room temperature in artificial plasma with and without 1% PIC; settings: triplicate, 2D-LC-MS/MS
Description: (§1) A mixed standard solution containing all insulins at a concentration of 10,000 ng/mL was obtained by diluting the stock solutions with artificial plasma. This stock solution was further diluted with artificial plasma to produce a series of calibration standards at the following concentrations: 50, 100, 150, 250, 500, 1,000, 1500, 2500, 5000, 10 000, and 15 000 pg/mL. Quality control (QC) samples were prepared in artificial plasma at 200, 800, 3000, and 9000 pg/mL and analyzed prior to real human plasma samples. For method validation, four concentration levels were prepared in artificial plasma at 50, 125, 6000, and 13 000 pg/mL. Two concentration levels (193 and 7752 pg/mL) were evaluated for stability testing.
(§2) Each concentration level was tested in triplicate.

[2] = Short-term stability in refrigerator (4°C) in artificial plasma with and without 1% PIC; settings: triplicate, 2D-LC-MS/MS
Description: as §1, §2

[3] = Autosampler (re-injection) stability at 4°C for 24 h; format: in vitro ADME; settings: autosampler (AS) 4°C, triplicate, 2D-LC-MS/MS
Description: (§3) The stability tests of all insulins were performed at two concentration levels (193 and 7752 pg/mL). One set of tests was performed with artificial plasma and the other set with artificial plasma containing 1% PIC. Each concentration level was tested in triplicate. These QC samples were quantified using an artificial plasma calibration curve without PIC, and the obtained concentrations were compared with the nominal concentrations of the low quality control (LQC) and high quality control (HQC), which were set to 100%. To evaluate the stability of insulins in artificial plasma containing 1% PIC, we considered the concentration measured at time zero as the baseline (100%). All subsequent changes in concentration were calculated relative to this initial measurement.
(§4) Short‐term stability, long‐term stability, and freeze‐thaw stability were evaluated in this study. LQC and HQC samples were stored at room temperature and in a refrigerator for 3, 6, and 24 h to assess short‐term (bench‐top) stability and at 4°C in the autosampler for 24 h to assess re‐injection stability.

[4] = Freeze-thaw stability in artificial plasma after storage at −80°C; format: in vitro ADME; settings: stored at −80°C, triplicate, 2D-LC-MS/MS; for 24 h, change (%): cycle at 24 h; for 48 h, change (%): cycle at 48 h; for 72 h, change (%): cycle at 72 h
Description: as §3, §4

[5] = Long-term stability in artificial plasma at −20°C; format: in vitro ADME; settings: triplicate, 2D-LC-MS/MS
Description: as §3, §4

[6] = Long-term stability in artificial plasma at −80°C; format: in vitro ADME; settings: triplicate, 2D-LC-MS/MS
Description: as §3, §4

[7] = Insulin concentrations in patient plasma samples (2D-LC-MS/MS); format: in vivo, human
Description: Patient samples were collected in K2EDTA tubes, and centrifuged, and 250 µL aliquots were either analyzed immediately or stored at −80°C for analysis the following day. A previously published method [12] was used for sample preparation, including protein precipitation, conversion of analytes to anions, and micro SPE (µSPE) using Oasis MAX multimodal sorbent (Waters) in a 96‐well design. […] QuanRecovery with MaxPeak 700 µL plates (Waters) were used for elution after SPE and subsequent injection for 2D‐LC‐MS/MS analysis.
To assess the clinical applicability of the proposed method, 30 patient samples (16 males and 15 females) were analyzed. Plasma samples (collected in K2EDTA tubes) were supplied to the Department of Forensic Medicine.

[8] = Adsorption test in three types of glass vials; format: physicochemical; settings: 15 ng/mL in 6.7% acetic acid in water:methanol (60:40, v/v), UHPLC-MS/MS, Figure S10
Description: We prepared stock solutions of all insulins, which were then transferred to three different types of glass vials and analyzed by LC‐MS/MS. For the adsorption test, a mixture of all insulins at a concentration of 15 ng/mL was prepared in a solvent containing 6.7% acetic acid in a water:methanol mixture (60:40, v/v). The mixture was then transferred to three types of vials and analyzed by UHPLC‐MS/MS. This experiment was performed prior to the optimization of the chromatographic method.

[9] = artificial plasma (BZ273) with 1% PIC, 193 pg/mL, % of concentration at time zero (=100%)
[10] = artificial plasma (BZ273) with 1% PIC, 7752 pg/mL, % of concentration at time zero (=100%)
[11] = artificial plasma (BZ273) without PIC, 193 pg/mL, % of nominal concentration (=100%)
[12] = artificial plasma (BZ273) without PIC, 7752 pg/mL, % of nominal concentration (=100%)
[13] = artificial plasma (BZ273) with 1% PIC, 7752 pg/mL, % of concentration at time zero
[14] = artificial plasma (BZ273) without PIC, 7752 pg/mL, % of nominal concentration
[15] = artificial plasma (BZ273) with 1% PIC, 193 pg/mL, % of concentration at time zero

Human insulin
0 h, change (%) [1, 9]: 100.0% | 24 h, change (%) [1, 9]: 72.1% | 0 h, change (%) [1, 10]: 100.0% | 6 h, change (%) [1, 10]: 86.4% | 24 h, change (%) [1, 10]: 67.4% | 0 h, change (%) [1, 11]: 100.1% | 0 h, change (%) [1, 12]: 99.1% | 6 h, change (%) [1, 12]: 95.1% | 3 h 4°C, change (%) [2, 9]: 100.4% | 24 h 4°C, change (%) ([2]; artificial plasma (BZ273) with 1% PIC, 193 pg/mL, 24 h, % of concentration at time zero (=100%)): 87.9% | 6 h 4°C, change (%) [2, 10]: 98.6% | 6 h 4°C, change (%) [2, 11]: 105.6% | 3 h 4°C, change (%) [2, 12]: 90.2% | 24 h AS, change (%) ([3]; extracted samples from artificial plasma with 1% PIC, 193 pg/mL, % of concentration at time zero (=100%)): 105.9% | 24 h AS, change (%) ([3]; extracted samples from artificial plasma without PIC, 7752 pg/mL, % of nominal concentration (=100%)): 100.5% | 24 h, change (%) [4, 13]: 111.6% | 24 h, change (%) [4, 14]: 100.2% | 48 h, change (%) [4, 15]: 116.6% | 48 h, change (%) [4, 14]: 94.6% | 72 h, change (%) [4, 13]: 92.9% | 72 h, change (%) [4, 14]: 87.1% | 1 week, change (%) [5, 15]: 70.1% | 1 week, change (%) [5, 13]: 54.9% | 2 weeks, change (%) [5, 13]: 61.8% | 2 weeks, change (%) ([5]; artificial plasma (BZ273) without PIC, 193 pg/mL, % of nominal concentration): 106.3% | 3 weeks, change (%) ([5]; 3 weeks, artificial plasma (BZ273) with 1% PIC, 7752 pg/mL, % of concentration at time zero): 25.9% | 1 week, change (%) ([6]; 1 week, artificial plasma (BZ273) without PIC, 7752 pg/mL, % of nominal concentration): 100.1% | 2 weeks, change (%) [6, 15]: 105.8% | 2 weeks, change (%) [6, 13]: 111.9% | 2 weeks, change (%) [6, 14]: 106.0% | Concentration range (pg/mL) in patient samples ([7]; human plasma (K2EDTA), 30 patient samples from the Department of Forensic Medicine (unexplained deaths), range over quantified samples): 219.1 to 6065.2 pg/mL | Concentration in a real patient sample ([7]; human plasma, single patient sample of Figure 2): LLOQ | Difference in concentration between vial types (adsorption to container surfaces) [8]: up to 50%
